{
  "source": "paper PMC4300165",
  "about": "“Highly thermostable GH39 β-xylosidase from a Geobacillus sp. strain WSUCF1” (BMC Biotechnology, 2014)",
  "molecules": {"B1": {"name": "WSUCF1 β-xylosidase (Geobacillus zalihae) (protein)", "chain": "KVVNVPSNGREKFKKNWKFCVGTGRLGLALQKEYLDHLKLVQEKIGFRYIRGHGLLSDDVGIYREVEIDGEMKPFYNFTYIDRIVDSYLALNIRPFIEFGFMPKALASGDQTVFYWKGNVTPPKDYNKWRDLIVAVVSHFIERYGIEEVRTWLFEVWNEPNLVNFWKDANKQEYFKLYEVTARAVKSVDPHLQVGGPAICGGSDEWITDFLHFCAERRVPVDFVSRHAYTSKAPHKKTFEYYYQELEPPEDMLEQFKTVRALIRQSPFPHLPLHITEYNTSYSPINPIHDTALNAAYIARILSEGGDYVDSFSYWTFSDVFEEMDVPKALFHGGFGLVALHSIPKPTFHAFTFFNALGDELLYRDGEMIVTRRKDGSIAAVLWNLVMEKGEGFTKEVQLVIPVSFSAVFIKRQIVNEQYGNAWRVWKQMGRPRFPSRQAVETLRQVAQPHVMTEQRRATDGVIHLSIVLSKNEVTLIEIEQVRDETSTYVGLDDGEMTSYSS", "notes": "full-length ORF of 1509 bp (about 502 residues); N-His SUMO fusion expressed in E. coli, tag cleaved with SUMO protease; 58 kDa, apparent tetramer of 230 kDa"}},
  "key": {"[1]": {"target": "T1, WSUCF1 β-xylosidase (Geobacillus zalihae, UniProt A0A7H1RXW2)", "T1 construct": "gene IC807_05610; full-length ORF of 1509 bp (about 502 residues); N-His SUMO fusion expressed in E. coli, tag cleaved with SUMO protease; 58 kDa, apparent tetramer of 230 kDa", "T1 sequence (A0A7H1RXW2 2-503)": "B1 chain", "test": "residual pNPX hydrolysis with added xylose", "format": "biochemical", "details": "pNPX 2.5 mg/ml stock as substrate, phosphate buffer pH 6.5, 70°C, 10 min; end-product inhibition"}, "[2]": {"target": "WSUCF1 β-xylosidase (GH39 β-xylosidase from Geobacillus sp. strain WSUCF1) (Geobacillus sp. strain WSUCF1)", "test": "SDS-PAGE without heat treatment, with zymogram; purified enzyme mixed with 2X SDS sample buffer, loaded on an 8-16% gradient SDS-PAGE gel without heating (230 kDa, active) or after 95°C for 2 min (58 kDa, inactive); tetramer inferred from the 4-fold increase in apparent mass"}, "[3]": {"substrate": "O=[N+]([O-])c1ccc(O[C@@H]2OC[C@@H](O)[C@H](O)[C@H]2O)cc1", "test": "purified protein", "format": "biochemical, Geobacillus zalihae", "details": "50 mM phosphate buffer pH 6.5, 70°C, 0–15 mM substrate, Table 2 prints 2.3"}},
  "data": [
    {"molecule": "OC1OC[C@@H](O)[C@H](O)[C@H]1O", "note": "(stereo partly drawn) [xylose]", "values": [
      {"measurement": "% activity retained at 300 mM", "setting": "[1]", "result": 50, "unit": "%"}
    ]},
    {"molecule": "WSUCF1 β-xylosidase (GH39 β-xylosidase from Geobacillus sp. strain WSUCF1) (enzyme)", "values": [
      {"measurement": "stoichiometry N", "setting": "[2]", "result": 4}
    ]},
    {"molecule": "B1", "values": [
      {"measurement": "Km", "setting": "[3]", "result": 2380, "unit": "µM"}
    ]}
  ]
}
